Data: US7838495B2, “Compositions and methods of use of EPB1, and ErbB3 binding protein” (University of Maryland, Baltimore, priority 2007, dated 2010)

Experiments:
AU565 cells = assay: Western blot of ErbB2 in AU565 EBP1 transfectants; format: cell-based, human
Procedure: FIG. 10A-C. Effect of ectopic expression of EBP1 on ErbB3 or ErbB2 protein levels. (A and B) Lysates of logarithmically growing MCF-7 vector control cells (CMV) or EBP1 transfected cells (Ebp1) or (C) AU565 cells were blotted with antibodies for ErbB3 or ErbB2 and actin as indicated. Data are representative of three experiments.
2.5. Western blot analysis. Total cell extracts were prepared by direct lysis of cells with lysis buffer [50 mM Tris-HCl (pH 7.4), 1 mM EDTA, 250 mM NaCl, 1% Triton X-100, 0.5 mM DTT, and 1× Complete™ protease inhibitor]. Protein concentrations were measured using a detergent compatible kit (Bio-Rad). Proteins (30 lg per well) were resolved by SDS-PAGE, transferred to PVDF membranes, and immunoblotted as described. […] Images were quantified using IMAGE-J software (NIH). […] Relative cell numbers were determined 4 days later using a Promega Proliferation Reagent as per manufacturer's instructions with absorbance being read at 490 nm using a Dynex plate reader. […] Data were analyzed using a two-tailed Students t-test and a p <0.05 was deemed statistically significant. […]

LNCaP cells = assay: LNCaP xenografts in SCID mice; format: in vivo
Procedure: In Vivo Studies in SCID Mice: Male SCID mice, 4-6 weeks of age, were purchased from the National Cancer Institute (Frederick, Md.). Animals were housed in a pathogen-free environment under controlled conditions of light and humidity and received food and water ad libitum. LNCaP cells were grown in complete medium and 800 μg/ml of G418 until 80% confluent. Cells were scraped into phosphate-buffered saline (PBS), collected by centrifugation, and suspended in Matrigel™ (10 mg/ml) (Collaborative Research, Waltham, Mass.) at 1×10^7 cells/ml. Each mouse received s.c. injections at one site on each flank with 100 μl of cell suspension. Tumors were measured three times a week with calipers, and tumor volumes were calculated by the formula 0.5236×r1^2×r2 (r1<r2). The animal protocols were approved by the Institutional Animal Care and Use Committee at the University of Maryland.
After sacrifice, tumors were excised and fixed in 10% buffered neutral formalin. Sections of formalin-fixed, paraffin-embedded tissues were cut to 5 μm. Slides were stained with an EPB1 antibody (Upstate) diluted 1:50 using the standard avidin-biotin method (Vector Labs, Burlinghame, Calif.). Peroxidase activity was localized by the diaminobenzidine tetrachloride peroxidase reaction with Harris hematoxylin as a counterstain.

C81 cells = assay: Sensitivity of C81 transfectants to 4 Gy gamma radiation; format: cell-based, human; conditions: C81 EPB1 transfectants, 72 h after exposure (vector less than 10%)
From the text: Restoration or increase of EPB1 expression can sensitize the androgen independent prostate cancer C81 cells to radiation. Radiotherapy is another important treatment for locally and regionally advanced prostate cancer. However, resistance of prostate cancer cells to radiation limits its efficacy and dose escalation is obviously not the solution to this common phenomenon. Bcl-2 overexpression may be the same critical molecule underlying the resistance to radiotherapy as to the chemotherapy in prostate cancer. 4 Gy gamma radiation killed 100% of EPB1 transfectants while less than 10% of C81 vector transfectants were dead in 72 h after exposure to the same 4 Gy gamma irradiation. […] Without being bound by theory, it is contemplated that the increase in sensitivity to radiation might be due to the decreased levels of Bcl-2 in EPB1 transfectants given the importance of Bcl-2 function in resistance to radiation.

B1: EBP1: ErbB3 binding protein (SEQ ID NO: 2), AR corepressor, here ectopically expressed in cancer cells by stable transfection of an expression plasmid (protein, listed as Homo sapiens)
chain: MSGEDEQQEQTIAEDLVVTKYKMGGDIANRVLRSLVEASSSGVSVLSLCEKGDAMIMEETGKIFKKEKEMKKGIAFPTSISVNNCVCHFSPLKSDQDYILKEGDLVKIDLGVHVDGFIANVAHTFVVDVAQGTQVTGRKADVIKAAHLCAEAALRLVKPGNQNTQVTEAWNKVAHSFNCTPIEGMLSHQLKQHVIDGEKTIIQNPTDQQKKDHEKAEFEVHEVYAVDVLVSSGEGKAKDAGQRTTIYKRDPSKQYGLKMKTSRAFFSEVERRFDAMPFTLRAFEDEKKARMGVVECAKHELLQPFNVLYEKEGEFVAQFKFTVLLMPNGPMRITSGPFEPDLYKSEMEVQDAELKALLQSSASRKTQKKKKKKASKTAENATSGETLEENEAGD
modifications: FLAG tag
AU565 cells
  decrease of ErbB2 protein: 57%
LNCaP cells; EBP1-transfected LNCaP s.c. in SCID mice (vector controls 35%)
  inoculation sites with tumors on day 20: 10%
LNCaP cells; EBP1-transfected LNCaP s.c. in SCID mice (vector more than 85%), p=0.04
  sites that developed tumors at the end of the study: less than 40%
LNCaP cells; EPB1-transfected LNCaP in SCID mice (vector 1214±168), p=0.0003
  average tumor volume at the end of the study: 268±70 mm^3
LNCaP cells; EPB1 transfectants vs vector, all time points, p=0.0001
  tumor growth rate: slower
C81 cells
  cells killed by 4 Gy gamma radiation: 100%
